Measured values: publication PMC9886945
“And” between values parts separate entries of the source, which are not always exact repeats. Identical values can stand only once.

What was measured:
[1] = target: Mycobacterium tuberculosis RNA polymerase holoenzyme with the σ^B subunit (M. tuberculosis) (UniProt P9WGZ1); assay: negative stain EM
[2] = target: Mycobacterium tuberculosis RNA polymerase holoenzyme with the σ^B subunit (M. tuberculosis) (UniProt P9WGZ1); assay: cryo-EM structure
[3] = target: Mycobacterium tuberculosis RNA polymerase holoenzyme with the σ^B subunit (M. tuberculosis) (UniProt P9WGZ1); assay: SEC
[4] = target: Mycobacterium tuberculosis RNA polymerase core (M. tuberculosis) (UniProt P9WGZ1); assay: SEC

Row | Substance | RNAP concentration from which octamers form [1] [µM] | percent of molecules in oligomers after 24 h at 4 °C [1] [%] | stoichiometry N [1] | percent of oligomer particles that are octamers [2] [%] | percent of oligomer particles that are tetramers [2] [%] | stoichiometry N [2] | stoichiometry N [3] | stoichiometry N [4]
1 | Mycobacterium tuberculosis RNA polymerase holoenzyme with the σ^B subunit, P9WGZ1;P9WGY9;P9WGY7;P9WGY5;P9WGI5 | 0.1 | 86 | 8 | 80 | 20 | 8 and 4 | 8 | 
2 | Mycobacterium tuberculosis RNA polymerase core (from UniProt P9WGZ1;P9WGY9;P9WGY7;P9WGY5) (complex) |  |  |  |  |  |  |  | 2
